Drawing on article PMC5719079, this text covers Kd for two substances.

pKd: −log10 of the molar value.

For orientation: pKd means −log10 of the Kd, conventionally taken in molar units.

Assay [1] concerns the target Human recombinant hexaHis-tagged SIRT2 containing residues 50-356 (human) (UniProt Q8IXJ6). As to the kind of experiment: ELISA; plate coated with 5 μg/ml SIRT2 overnight in PBS; TPPP/p25 or tubulin added in serial dilution, detected by TPPP/p25 or tubulin antibody; apparent Kd from a single binding site hyperbola; MZ242, MZ25 and SH1 up to 30 μM did not influence the binding of 125 nM TPPP/p25 significantly. (An ELISA detects its analyte on a solid surface through an enzyme-linked reagent.)

For assay [2], the target named is Tubulin Polymerization Promoting Protein (TPPP/p25) (human) (UniProt O94811). As to the kind of experiment: ELISA; plate coated with 5 ug/ml TPPP/p25 overnight in PBS; tubulin added at a serial dilution; bound tubulin detected by monoclonal tubulin antibody and HRP-conjugated secondary antibody; Kd from the saturation curve by a single binding site hyperbola model; apparent.
UniProt O94811, sequence (O94811 whole entry): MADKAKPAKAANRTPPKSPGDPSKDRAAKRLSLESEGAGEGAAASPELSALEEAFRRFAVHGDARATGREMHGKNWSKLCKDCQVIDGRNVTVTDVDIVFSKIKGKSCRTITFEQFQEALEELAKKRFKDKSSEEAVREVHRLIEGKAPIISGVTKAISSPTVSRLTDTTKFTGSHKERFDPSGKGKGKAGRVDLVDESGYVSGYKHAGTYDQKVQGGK

UniProt Q8IXJ6, sequence (Q8IXJ6 50-356): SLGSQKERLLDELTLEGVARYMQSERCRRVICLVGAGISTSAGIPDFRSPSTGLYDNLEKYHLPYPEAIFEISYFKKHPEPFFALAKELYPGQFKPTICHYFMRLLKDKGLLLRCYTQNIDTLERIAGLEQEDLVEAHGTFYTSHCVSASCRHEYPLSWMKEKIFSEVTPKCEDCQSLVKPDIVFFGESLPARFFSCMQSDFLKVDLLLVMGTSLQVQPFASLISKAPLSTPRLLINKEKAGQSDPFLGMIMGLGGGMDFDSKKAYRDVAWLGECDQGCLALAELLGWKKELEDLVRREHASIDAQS

For “Tubulin prepared from bovine brain (from UniProt Q6B856 1-445) (complex)”, the pKd in assay [1] was < 5.70.
Consider “tubulin (from UniProt Q6B856 1-445) (complex)”, for which the pKd in assay [2] was 8.00.
